Data taken from patent US11325966.

Experiments:
Experiment in all cases: cell-based or functional assay
[1] = target: HIV-1 envelope (Env) of pseudovirus T250-4 (HIV-1)
[2] = target: HIV-1 envelope (Env) of pseudovirus Q769.d22 (HIV-1)
[3] = target: HIV-1 envelope (Env) of pseudovirus Du172.17 (HIV-1)
[4] = target: HIV-1 envelope (Env) of pseudovirus 1006_11_C3_1601 (HIV-1)
[5] = target: HIV-1 envelope (Env) of pseudovirus Du156.12 (HIV-1)
[6] = target: HIV-1 envelope (Env) of pseudovirus YU2_WT (HIV-1) (UniProt P35961)
[7] = target: HIV-1 envelope (Env) of pseudovirus CNE17 (HIV-1)
[8] = target: HIV-1 envelope (Env) of pseudovirus T251-18 (HIV-1)
[9] = target: HIV-1 envelope (Env) of pseudovirus Ce1086_B2 (HIV-1)
[10] = target: HIV-1 envelope (Env) of pseudovirus 6545.v4.c1 (HIV-1)
[11] = target: HIV-1 envelope (Env) of pseudovirus C2101.c01 (HIV-1)
[12] = target: HIV-1 envelope (Env) of pseudovirus 6240_08_TA5_4622 (HIV-1)
[13] = target: HIV-1 envelope (Env) of pseudovirus 246F C1G (HIV-1)
[14] = target: HIV-1 envelope (Env) of pseudovirus Q259.d2.17 (HIV-1)
[15] = target: HIV-1 envelope (Env) of pseudovirus 231965.c01 (HIV-1)
[16] = target: HIV-1 envelope (Env) of pseudovirus Ce2060_G9 (HIV-1)
[17] = target: HIV-1 envelope (Env) of pseudovirus Ce1172_H1 (HIV-1)
[18] = target: HIV-1 envelope (Env) of pseudovirus YU2_N280Y (HIV-1) (UniProt P35961)
[19] = target: HIV-1 envelope (Env) of pseudovirus Ce2010_F5 (HIV-1)
[20] = target: HIV-1 envelope (Env) of pseudovirus YU2_N160K (HIV-1) (UniProt P35961)
[21] = target: HIV-1 envelope (Env) of pseudovirus AC10.0.29 (HIV-1)
[22] = target: HIV-1 envelope (Env) of pseudovirus R3265.c06 (HIV-1)
[23] = target: HIV-1 envelope (Env) of pseudovirus Q842.d12 (HIV-1)
[24] = target: HIV-1 envelope (Env) of pseudovirus 7030102001E5 (Rev-) (HIV-1)
[25] = target: HIV-1 envelope (Env) of pseudovirus 191821_E6_1 (HIV-1)
[26] = target: HIV-1 envelope (Env) of pseudovirus Ce1176_A3 (HIV-1)
[27] = target: HIV-1 envelope (Env) of pseudovirus CNE8 (HIV-1)
[28] = target: HIV-1 envelope (Env) of pseudovirus 0815.v3.c3 (HIV-1)
[29] = target: HIV-1 envelope (Env) of pseudovirus 3103.v3.c10 (HIV-1)
[30] = target: HIV-1 envelope (Env) of pseudovirus 9004SS_A3_4 (HIV-1)
[31] = target: HIV-1 envelope (Env) of pseudovirus 62357_14_D3_4589 (HIV-1)
[32] = target: HIV-1 envelope (Env) of pseudovirus P1981_C5_3 (HIV-1)
[33] = target: HIV-1 envelope (Env) of pseudovirus RHPA4259.7 (HIV-1)
[34] = target: HIV-1 envelope (Env) of pseudovirus 928-28 (HIV-1)
JR-CSF N295A (HIV-1) = JR-CSF N295A (HIV-1) (UniProt P20871)
[35] = target: HIV-1 YU2 Env N332K, on pseudovirus (HIV-1) (UniProt P35961)
[36] = target: HIV-1 Env of pseudovirus 7030102001E5 (Rev-) (HIV-1)

Substance: BG1 (antibody)
- IC50 in TZM-bl assay [1]: 3.92 µg/mL
- IC80 in TZM-bl assay [1]: > 30 µg/mL
- IC50 in TZM-bl assay [2]: > 30 µg/mL
- IC80 in TZM-bl assay [2]: > 30 µg/mL
- IC50 in TZM-bl assay [3]: > 30 µg/mL
- IC80 in TZM-bl assay [3]: > 30 µg/mL
- IC50 in TZM-bl assay [4]: > 30 µg/mL
- IC80 in TZM-bl assay [4]: > 30 µg/mL
- IC50 in TZM-bl assay [5]: 1.52 µg/mL
- IC80 in TZM-bl assay [5]: 6.03 µg/mL
- IC50 in TZM-bl assay [6]: 15.8 µg/mL
- IC80 in TZM-bl assay [6]: > 30 µg/mL
- IC50 in TZM-bl assay [7]: > 30 µg/mL
- IC80 in TZM-bl assay [7]: > 30 µg/mL
- IC50 in TZM-bl assay [8]: 3.59 µg/mL
- IC80 in TZM-bl assay [8]: 18 µg/mL
- IC50 in TZM-bl assay [9]: > 30 µg/mL
- IC80 in TZM-bl assay [9]: > 30 µg/mL
- IC50 in TZM-bl assay [10]: > 30 µg/mL
- IC80 in TZM-bl assay [10]: > 30 µg/mL
- IC50 in TZM-bl assay [11]: > 30 µg/mL
- IC80 in TZM-bl assay [11]: > 30 µg/mL
- IC50 in TZM-bl assay [12]: > 30 µg/mL
- IC80 in TZM-bl assay [12]: > 30 µg/mL
- IC50 in TZM-bl assay [13]: > 30 µg/mL
- IC80 in TZM-bl assay [13]: > 30 µg/mL
- IC50 in TZM-bl assay [14]: > 30 µg/mL
- IC80 in TZM-bl assay [14]: > 30 µg/mL
- IC50 in TZM-bl assay [15]: > 30 µg/mL
- IC80 in TZM-bl assay [15]: > 30 µg/mL
- IC50 in TZM-bl assay [16]: > 30 µg/mL
- IC80 in TZM-bl assay [16]: > 30 µg/mL
- IC50 in TZM-bl assay [17]: > 30 µg/mL
- IC80 in TZM-bl assay [17]: > 30 µg/mL
- IC50 in TZM-bl assay [18]: 9 µg/mL
- IC80 in TZM-bl assay [18]: 23 µg/mL
- IC50 in TZM-bl assay [19]: > 30 µg/mL
- IC80 in TZM-bl assay [19]: > 30 µg/mL
- IC50 in TZM-bl assay [20]: > 30 µg/mL
- IC80 in TZM-bl assay [20]: > 30 µg/mL
- IC50 in TZM-bl assay [21]: 0.012 µg/mL
- IC80 in TZM-bl assay [21]: 0.043 µg/mL
- IC50 in TZM-bl assay [22]: 0.611 µg/mL
- IC80 in TZM-bl assay [22]: 3.44 µg/mL
- IC50 in TZM-bl assay [23]: 1.4 µg/mL
- IC80 in TZM-bl assay [23]: 4.3 µg/mL
- IC50 in TZM-bl assay [24]: > 30 µg/mL
- IC80 in TZM-bl assay [24]: > 30 µg/mL
- IC50 in TZM-bl assay [25]: > 30 µg/mL
- IC80 in TZM-bl assay [25]: > 30 µg/mL
- IC50 in TZM-bl assay [26]: 0.031 µg/mL
- IC80 in TZM-bl assay [26]: 0.165 µg/mL
- IC50 in TZM-bl assay [27]: > 30 µg/mL
- IC80 in TZM-bl assay [27]: > 30 µg/mL
- IC50 in TZM-bl assay [28]: > 30 µg/mL
- IC80 in TZM-bl assay [28]: > 30 µg/mL
- IC50 in TZM-bl assay [29]: > 30 µg/mL
- IC80 in TZM-bl assay [29]: > 30 µg/mL
- IC50 in TZM-bl assay [30]: > 30 µg/mL
- IC80 in TZM-bl assay [30]: > 30 µg/mL
- IC50 in TZM-bl assay [31]: 0.638 µg/mL
- IC80 in TZM-bl assay [31]: 2.89 µg/mL
- IC50 in TZM-bl assay [32]: > 30 µg/mL
- IC80 in TZM-bl assay [32]: > 30 µg/mL
- IC50 in TZM-bl assay [33]: > 30 µg/mL
- IC80 in TZM-bl assay [33]: > 30 µg/mL
- IC50 in TZM-bl assay [34]: > 30 µg/mL
- IC80 in TZM-bl assay [34]: > 30 µg/mL

Substance: 354BG8 (antibody)
- IC50 in TZM-bl assay (JR-CSF N295A (HIV-1)): 0.006 µg/mL

Substance: BG18 IgG (354BG18) (antibody)
- IC50 in TZM-bl assay [35]: > 30 µg/mL
- IC80 in TZM-bl assay [35]: > 30 µg/mL
- IC50 in TZM-bl assay [36]: 0.002 µg/mL
- IC80 in TZM-bl assay [36]: 0.008 µg/mL
